Test [1] deals with intrinsic pathway (contact activation). Briefly: Thrombin generation assay by CAT triggered by ellagic acid. It counts as biochemical, human. To be noted: ellagic acid trigger, 100 μg/mL. As to the method:
(§1) Thrombin generation was performed as previously described with some modifications.30 In brief, 60 μL platelet poor plasma (PPP), 20 μL FXIIa inhibitor/HA buffer (Hepes 20 mM, NaCl 140 mM, pH 7.4, 5 mg/mL BSA), and 20 μL PPP reagent, PPP LOW reagent, MP reagent or Actin FS (1:170 diluted in HA buffer) were mixed in a 96-well microtiter plate (Immulon 2HB; Thermo Fisher Scientific) and incubated for 15 min at 37° C. Thrombin generation was triggered by the addition of 20 μL of substrate/calcium chloride buffer (FLUKA) at 37° C. Samples were tested in triplicate for each condition. Fluorogenic thrombin substrate hydrolysis was measured every 20 s for 120 min on a microplate fluorometer (Fluoroskan Ascent FL; Thermo Fisher Scientific) with a 390/460-nm (excitation/emission) filter set. Data analysis was performed on the Thrombinoscope software (Synapse By). PPP reagent (TF […], PL 4 μM), PPP LOW reagent (TF […], PL 4 μM), MP reagent (PL 4 μM), thrombin calibrator and FLUKA were purchased from Synapse By.

A further test deals with FXIIa. To be noted: cited from earlier work.
FXIIa, sequence (P00748 373-615 limits assumed, other chains not shown): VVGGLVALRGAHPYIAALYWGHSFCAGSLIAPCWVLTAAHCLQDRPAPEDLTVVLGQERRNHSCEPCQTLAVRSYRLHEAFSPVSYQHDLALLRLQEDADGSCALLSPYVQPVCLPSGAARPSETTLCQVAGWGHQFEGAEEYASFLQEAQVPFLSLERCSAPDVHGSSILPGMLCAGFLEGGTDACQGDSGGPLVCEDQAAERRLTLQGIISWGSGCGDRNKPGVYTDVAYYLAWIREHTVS
The target in a further test is trypsin (Homo sapiens, UniProt P07477). Briefly: Specificity FXII618 vs CTI, trypsin. It counts as biochemical. To be noted: at a concentration as low as 20 nM.
Test [2] has as its system intrinsic pathway of coagulation. Briefly: aPTT in human plasma (Example 1). In kind it is biochemical. To be noted: citrated platelet poor plasma, 100 μg/mL inhibitor. How it is done:
aPTT, PT and FXII coagulant activity (FXII:c) measurements Coagulation times (aPTT, PT) and FXIIa activity were determined in human plasma using an automated blood coagulation analyzer (Sysmex CS-5100, Siemens, Eschborn, Germany) with according to the manufacturer's instructions (Siemens). Extrinsic coagulation was triggered with Innovin® (recombinant human tissue factor, synthetic phospholipids and calcium in stabilized HEPES buffer system; Dade Behring/Simens). Intrinsic coagulation was triggered with Pathromtin* SL (Siemens). Human plasma used in this study was derived from a pool of fresh frozen plasma units provided by the Service Regional Vaudois de Transfusion Sanguine, Switzerland.
Coagulation times (aPTT, PT) and FXIIa activity were determined, at least in duplicate, in human plasma using an automated blood coagulation analyzer (Sysmex CA-7000) with standard reagents according to the manufacturer's instructions (Siemens Healthcare, Eschborn, Germany). Human plasma used in this study was derived from a pool of fresh frozen plasma units provided by the Service Regional Vaudois de Transfusion Sanguine, Switzerland.

In test [3] the test system is thrombin generation in platelet poor plasma. Put plainly: Thrombin generation assay by CAT, TF-triggered or without trigger. To be noted: 1 pM TF, 100 μg/mL inhibitor. In kind it is biochemical, human.
For test [4] the test system is unchanged. Described as above. To be noted: 100 μg/mL inhibitor. Also on record: lag time: unit not given here. In kind it is biochemical, human. How it is done:
as §1
Venous blood was collected from healthy volunteers by antecubital venipuncture with 19-gauge needles in 3,2% (w/v) citrated Monovette plastic tubes. In order to minimize contact activation, the first collection tube containing EDTA was discarded according to standard procedures. […] Blood was then processed to PPP by an initial centrifugation step at 2,000 g for 5 min followed by a second centrifugation step at 10,000 g for 10 min. Plasma aliquots were stored at −80 until analysis.

The mark [5] stands for this setting: absence of extrinsic- or intrinsic-specific trigger.

Consider 1 molecule from patent US20180118786A1, “NOVEL lNHIBITORS OF THE ENZYME ACTIVATED FACTOR XII (FXIIA)” (ECOLE POLYTECHNIQUE FEDERALE DE LAUSANNE (EPFL), priority 2015, published 2018).

B1: CTI: 13.6 kDa protein isolated from corn seeds inhibiting FXIIa (protein)
chain: SAGTSCVPGWAIPHNPLPSCRWYVTSRTCGIGPRLPWPELKRRCCRELADIPAYCRCTALSILMDGAIPPGPDAQLEGRLEDLPGCPREVQRGFAATLVTEAECNLATISGVAECPWILGGGTMPSK
On to B1, for which, in test [1], the “reduction of ETP” value was about 90% and the reduction of peak was over 96%. Moreover, the inhibitory constant (Ki) at FXIIa was 24 nM. Moreover, the “inhibition of trypsin activity” value with trypsin is recorded as “significantly inhibits”. The molecule further yielded an aPTT in test [2] of 65.4 ± 0.5 s. The “effect on thrombin generation” value in test [3] is on record as “no significant effect”. The molecule further showed a lag time in test [4] (0.25 pM TF) of 8.0±0.2. In test [4] (setting [5]), this molecule registered a lag time of 38.7±1.9 and a peak of 78.0±6.8.

The Ki is the equilibrium dissociation constant of an inhibitor or competing ligand from its target.
